Measured values as given in paper PMC8789516, “Polyphenol oxidase and enzymatic browning in apricot (Prunus armeniaca L.): Effect on phenolic composition and deduction of main substrates” (Current Research in Food Science, 2022).

What was measured:
Details in all cases: pH 7.0, 50 mM Tris-HCl, 25 °C, 2 mM SDS as activator of the latent enzyme
[1] = molecular target: T1, L-PaPPO (recombinant latent apricot polyphenol oxidase) (Prunus armeniaca, UniProt O81103, S149R/A376C/R416N/V417C)
T1 construct: gene PPO

[2] = substrate: NCCc1ccc(O)cc1; assay: purified protein; assay type: biochemical, Prunus armeniaca
[3] = substrate: NCCc1ccc(O)c(O)c1; assay: purified protein; assay type: biochemical, Prunus armeniaca

`O=C(/C=C/c1ccc(O)c(O)c1)O[C@@H]1C[C@](O)(C(=O)O)C[C@@H](O)[C@H]1O` [Chlorogenic acid] showed a Km [1] of 1520 ± 100 µM.

In the case of `O=C(/C=C/c1ccc(O)c(O)c1)O[C@@H]1C[C@@](O)(C(=O)O)C[C@@H](O)[C@@H]1O` [Neochlorogenic acid], the Km [1] is reported as 1470 ± 290 µM.

B1: L-PaPPO (recombinant latent apricot polyphenol oxidase) (Prunus armeniaca; A376C/R416N/S149R/V417C) (protein)
chain: DPIAPPDLTTCKPAEITPGGSETVPCCPPVTTKIKTFKPDLSIPLRTRPAAHQVTDEYLAKFKKAQAAMRALPDDDPRSMVQQAKVHCAYCNGAYPQVGFTDNDIQVHFSWLFFPFHRMYLYFYERILGKLIDDPTFALPYWNWDSPVGFPIPDIYTDTSSPLYDQYRNADHQPPVLVDLSYGGKDDDVDEQTRIDENLAIMYRQMVSGAKTPDLFFGHAYRAGNLNTGKYPGTIENMPHNNIHIWVGDPSQTHQEDMGNFYSAGRDPLFYAHHCNVDRMWNIWKTLGGKRKDITDTDWLDAEFLFYDENAELVNCKVRDSLEPEKQLRYNYEPVSLPWLFTKPTARKTKNKTKAKVAATQLTSKFPATLVEVTTVEVARPKPRKRSKKEKVDEEELLIIKDIEFEGTEAVKFDVFINDDAESLSRRDKSEFAGSFVHVPQGKTTKAKTKTNLKLGITDLLEDLGAEDDSSVLVTLVPRVSNSPITIGGFKIEYSS
notes: latent form Asp102-Ser597 (active plus C-terminal domain), signal peptide removed; Gly-Pro-Met left after HRV 3C cleavage of GST; E. coli SHuffle T7; intron removed
B1 showed a Km [2] of 4480 ± 360 µM, a kcat [2] of 1.42 ± 0.13 s⁻¹ and a kcat/Km [2] of 318 ± 29 M⁻¹ s⁻¹. The Km [3] was 1610 ± 160 µM, the kcat [3] was 162 ± 3.3 s⁻¹ and the kcat/Km [3] was 99800 ± 2900 M⁻¹ s⁻¹.
